This passage reports Kd and koff results from patent publication JPH11332594A (dated 1999).

For this assay, the target named is T1, ヒト可溶性CD4 (human soluble CD4 made in Example 1, C-terminal FLAG-tag, expressed in COS7 cells) (human, UniProt P01730 26-396).
T1 construct: extracellular domain; Purified on anti-FLAG-M2 gel; also called ヒトCD4抗原
Briefly: SPR, BIA-core2000; human soluble CD4 amine-coupled to CM5 chip, antibody as analyte (50 μg/ml). On the technique in general: SPR reads the build-up and loss of mass on a sensor chip optically.

The Kd is the constant that tells how readily two partners part at equilibrium. Higher therefore signals lower affinity. A word on the koff: it is a measure of how fast the partners let go of each other. Low values mean a long-lived complex, high ones a short-lived complex.

B1: 4H5抗体 (anti-human CD4 mouse monoclonal antibody from Mouse-Mouse hybridoma 4H5, FERM P-16807) (antibody, V domains shown)
VH: QVQLQQSGPELVKPGASVKMSCKASGYTFTDYVINWLNQRTGQGLEWIGEIYPGSGSAYYNEMFKGKATLTADKSSNTAYMQLSSLTSEDSAVYFCARRGTGTGFAYWGRGTLVTVSA
VL: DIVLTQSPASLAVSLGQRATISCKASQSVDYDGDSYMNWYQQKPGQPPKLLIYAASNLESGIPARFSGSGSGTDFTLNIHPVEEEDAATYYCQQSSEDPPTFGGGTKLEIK
notes: Whole mouse monoclonal antibody from the hybridoma; also called 4H5 antibody; 抗ヒトCD4抗体(4H5抗体)
B1 displayed a Kd of 0.808 nM and an off-rate constant (koff) of 5.33e-06 s⁻¹.

B2: キメラ4H5抗体 (human-mouse chimeric anti-CD4 antibody expressed from plasmid pG14H5 in COS7 cells) (antibody, V domains shown)
VH: LQQSGPELVKPGASVKMSCKASGYTFTDYVINWLNQRTGQGLEWIGEIYPGSGSAYYNEMFKGKATLTADKSSNTAYMQLSSLTSEDSAVYFCARRGTGTGFAYWGRGTLVTVSA
VL: LTQSPASLAVSLGQRATISCKASQSVDYDGDSYMNWYQQKPGQPPKLLIYAASNLESGIPARFSGSGSGTDFTLNIHPVEEEDAATYYCQQSSEDPPTFGGGTKLEIK
notes: The human light chain constant region is not specified; also called chimeric 4H5 antibody; ヒトマウスキメラ抗CD4抗体
B2 showed a Kd of 1.24 nM and a koff of 2.92e-05 s⁻¹.
